Consider 18 molecules from patent US20100261660A1 (published 2010).

The chains are these.
B1: Round 2 CD28BP-14 (ligand)
chain: GISQVTKSVKEMAALSCDYNISIDELARMRIYWQKDQQMVLSIISGQVEVWPEYKNRTITDMNDNPRIVILALRLSDSGTYTCVIQKPVLKGAYKLEHLASVRLMIRADFPVPTINDLGNPSPNIRRLICSTSGGFPRPHLYWLENGEELNATNTTVSQDPGTELYMISSELDFNVTNNHSIVCLIKYGELSVSQIFPWSKPKQEPPIDQLPFWVIIPVSGALVLTAVVLYCLACRHVARWKRTRRNEETVGTERLSPIYLGSAQSSG
B2: Round 2 CD28BP-5 (ligand)
chain: ITPKSVTKRVKETVMLSCDYSTSTEELTSLRIYWQKDSKMVLAILPGKVQVWPEYKNRTITDMNDNPRIVILALRLSDKGTYTCVVQKPVLKGAYKLEHLTSVRLMIRADFPVPTINDLGNPSPNIRRLICSTSGGFPRPHLYWLENGEELNATNTTVSQDPGTELYMISSELDFNVTNNHSIVCLIKYGELSVSQIFPWSKPKQEPPIDQLPFWVIIPVSGALVLTAVVLYCLACRHVARWKRTRRNEETVGTERLSPIYLGSAQSSG
B3: Round 2 CD28G2-8 (ligand)
chain: ITPKSVTKRVKETVMLSCDYNTSTEELTSLRIYWQKDSKMVLAILPGKVQVWPEYKNRTITDMNDNPRIVILALRLSDSGTYTCVIQKPVLKGAYKLEHLASVRLMIRADFPVPSINDLGNPSPNIRRLICSTSGGFPRPHLYWLENGEELNATNTTVSQDPGTELYMISSELDFNVTNNHSIVCLIKYGELSVSQIFPWSKPKQEPPIDQLPFWVIIPVSGALVLTAVVLYCLACRHVARWKRTRRNEETVGTERLSPIYLGSAQSSG
B4: Round 2 CD28BP-16 (ligand)
chain: ITPKSVTKRVKETVMLSCDYNTSTEELTSLRIYWQKDSKMVLAILPGKVQVWPEYKNRTITDMNDNPRIVILALRLSDSGTYTCVIQKPVLKGAYKLEHLTSVRLMIRADFPVPTINDLGNPSPNIRRLICSTSGGFPRPHLYWLENGEELNATNTTVSQDPGTELYMISSELDFNVTNNHSIVCLIKYGELSVSQIFPWSKPKQEPPIDQLPFWVIIPVSGALVLAAVVLYCLACRHVARWKRTRRNEETVGTERLSPIYLGSAQSSG
B5: Round 2 CD28E9-6 (ligand)
chain: ITPKSVTKRVKETVMLSCDYNTSTEELTSLRIYWQKDSKMVLAILPGKVQVWPEYKNRTITDMNDNPRIVILALRLSDKGTYTCVIQKPDLKGAYKLEHLASVRLMIRADFPVPTINDLGNPSPNIRRLICSTSGGFPRPHLYWLENGEELNATNTTVSQDPGTELYMISSELDFNVTNNHSIVCLIKYGELSVSQIFPWSKPKQEPPIDQLPFWVIIPVSGALVLTAVVLYCLACRHVARWKRTRRNEETVGTERLSPIYLGSAQSSG
B6: Round 2 CD28F7-2 (ligand)
chain: ITPKSVTKRVKETVMLSCDYSTSTEELTSLRIYWQKDSKMVLAILPGKVQVWPEYKNRTITDMNDNPRIVILALRLSDSGTYTCVIQKPVLKGAYKLEHLASVRLMIRADFPVPTINDLGNPSPNIRRLICSTSGGFPEPRLAWMEDGEELNAVNTTVDQDLDTELYSVSSELDFNVTNNHSIVCLIKYGELSVSQIFPWSKPKQEPPIDQLPFWVIIPVSGALVLTAVVLYCLACRHVARWKRTRRNEETVGTERLSPIYLGSAQSSG
B7: Round 2 CD28F8-4 (ligand)
chain: ITPKSVTKRVKETVMLSCDYSTSTEELTSLRIYWQKDSKMVLAILPGKVQVWPEYKNRTITDMNDNPRIVILALRLSDSGTYTCVIQKPVLKGAYKLEHLASVRLMIRADFPVPTINDLGNPSPNIRRLICSTSGGFPRPHLYWLENGEELNATNTTLSQDPETKLYMISSELDFNVTNNHSIVCLIKYGELSVSQIFPWSKPKQEPPIDQLPFWVIIPVSGALVLTAVVLYCLACRHVARWKRTRRNEETVGTERLSPIYLGSAQSSG
B8: Round 2 CD28F3-6 (ligand)
chain: ITPKSVTKRVKETVMLSCDYSTSTEELTSLRIYWQKDSKMVLAILPGKVQVWPEYKNRTITDMNDNPRIVILALRLSDSGTYTCVIQKPDLKGAYKLEHLTSVRLMIRADFPVPTINDLGNPSPNIRRLICSTSGGFPRPHLYWLENGEELNATNTTLSQDPETKLYMISSELDFNVTNNHSIVCLIKYGELSVSQIFPWSKPKQEPPIDQLPFWVIIPVSGALVLTAVVLYCLACRHVARWKRTRRNEETVGTERLSPIYLGSAQSSG
B9: Round 2 CD28C6-1 (ligand)
chain: ITPKSVTKRVKETVMLSCDYSTSTEELTSLRIYWQKDSKMVLAILPGKVQVWPEYKNRTITDMNDNPRIVILALRLSDSGTYTCVIQKPVLKGAYKLEHLASVRLMIRADFPVPTINDLGNPSPNIRRLICSTSGGFPRPHLYWLENGEELNATNTTVSQDPGTELYMISSELDFNVTNNHSIVCLIKYGELSVSQIFPWSKPKQEPPIDQLPFWVIIPVSGALVLTAVVLYCLACRHGARWKRTRRNEETVGTERLSPIYLGSAQSSG
B10: Round 2 CD28BP-13 (ligand)
chain: ITPKSVTKRVKETVMLSCDYSTSTEELTSLRIYWQKDSKMVLAILPGKVQVWPEYKNRTITDMNDNPRIVILALRLSDSGTYTCVIQKPVLKGAYKLEHLASVRLMIRADFPVPTINDLGNPSPNIRRLICSTSGGFPEPRLAWMEDGEELNAVNTTVDQDLDTELYSVSSELDFNVTNNHSIVCLIKYGELSVSQIFPWSKPKQEPPIDQLPFWVIIPVSGALVLTAVVLYCLACRHVARWKRTRRNEETVGTERLSPIYLGSAQSSG
B11: Round 2 CD28E5-2 (ligand)
chain: ITPKSVTKRVKETVMLSCDYNTSTEELTSLRIYWQKDSKMVLAILPGKVQVWPEYKNRTITDMNDNPRIVILALRLSDSGTYTCVIQKPDLKGAYKLEHLASVRLMIRADFPVPTINDLGNPSPNIRRLICSTSGGFPRPHLYWLENGEELNATNTTLSQDPETKLYMISSELDFNVTNNRSIVCLIKYGELSVSQIFPWSKPKQEPPIDQLPFWVIIPVSGALVLTAVVLYCLACRHVARWKRTRRNEETVGTERLSPIYLGSAQSSG
B12: Round 2 CD28E10-6 (ligand)
chain: ITPKSVTKRVKETVMLSCDYNTSTEELTSLRIYWQKDSKMVLAILPGKVQVWPEYKNRTITDMNDNPRIVILALRLSDSGTYTCVIQKPVLKGAYKLEHLASVRLMIRADFPVPTINDLGNPSPNIRRLICSTSGGFPRPHLYWLENGEELNATNTTLSQDPETELYMISSELDFNVTNNHSIVCLIKYGELSVSQIFPWSKPKQEPPIDQLPFWVIIPVSGALVLTAVVLYCLACRHVARWKRTRRNEETVGTERLSPIYLGSAQSSG
B13: Round 2 CD28C8-6 (ligand)
chain: ITPKSVTKRVKETVMLSCDYNTSTEELTSLRIYWQKDSKMVLAILPGKVQVWPEYKNRTITDMNDNPRIVILALRLSDSGTYTCVIQKPVLKGAYKLEHLASVRLMIRADFPVPTINDLGNPSPNIRRLICSTSGGFPRPHLYWLENGEELNATNTTVSQDPGTELYMISSELGFNVTNNHSIVCLIKYGELSVSQIFPWSKPKQEPPIDQLPFWVIIPVSGALVLTAVVLYCLACRHVARWKRTRRNEETVGTERLSPIYLGSAQSSG
B14: Round 2 CD28H11-3 (ligand)
chain: ITPKSVTKRVKETVMLSCDYNTSTEELTSLRIYWQKDSKMVLAILPGKVQVWPEYKNRTITDMNDNPRIVILALRLSDSGTYTCVIQKPVLKGAYKLEHLASVRLMIRADFPVPTINDLGNPSPNIRRLICSTSGGFPRPHLYWLENGEELNATNTTLSQDPETKLYMISSELDFNVTNNHSIVCLIKYGELSVSQIFPWSKPKQEPPIDQLPFWVIIPVSGALVLTAAVLYCLACRHVARWKRTRRNEETVGTERLSPIYLGSAQSSG
B15: Round 2 CD28E2-4 (ligand)
chain: ITPKSVTKRVKETVMLSCDYSTSTEELTSLRIYWQKDSKMVLAILPGKVQVWPEYKNRTITDMNDNPRIVILALRLSDKGTYTCVIQKPVLKGAYKLEHLASVRLMIRADFPVPTINDLGNPSPNIRRLICSTSGGFPRPHLYWLENGEELNATNTTVSQDPGTELYMISSELDFNVTNNHSIVCLIKYGELSVSQIFPWSKPKQEPPIDQLPFWVIIPVSGALVLTAVVLYCLACRHVARWKRTRRNEETVGTERLSPIYLGSAQSSG
B16: Round 2 CD28C11-5 (ligand)
chain: ITPKSVTKRVKETVMLSCDYNTSTEELTSLRIYWQKDSKMVLAILPGKVQVWPEYKNRTITDMNDNPRIVILALRLSDSGTYTCVIQKPVLKGAYKLEHLTSVRLMIRADFPVPTINDLGNPSPNIRRLICSTSGGFPRPHLYWLENGEELNATNTTVSQDPGTELYMISSELDFNVTNNHSIACLIKYGELSVSQIFPWSKPKQEPPIDQLPFWVIIPVSGALVLTAVVLYCLACRHVARWKRTRRNEETVGTERLSPIYLGSAQSSG
B17: Round 2 CD28D2-9 (ligand)
chain: ITPKSVTKRVKETVMLSCDYNTSTEELTSLRIYWQKDSKMVLAILPGKVQVWPEYKNRTITDMNDNPRIVILALRLSDSGTYTCVIQKPVLKGAYKLEHLTSVRLMIRADFPVPTINDLGNPSPNIRRLICSTSGGFPRPHLYWLENGEELNATNTTLSQDPETELYMISSELDFNVTNNHSIVCLIKYGELSVSQIFPWSKPKQEPPIDQLPFWVIIPVSGALVLTAVVLYCLACRHVARWKRTRRNEETVGTERLSPIYLGSAQSSG
B18: Round 2 CD28D8-9 (ligand)
chain: ITPKSVTKRVKETVMLSCDYSTSTEELTSLRIYWQKDSKMVLAILPGKVQVWPEYKNRTITDMNDNPRIVILALRLSDSGTYTCVIQKPVLKGAYKLEHLTSVRLMIRADFPVPTINDLGNPSPNIRRLICSTSGGFPRPHLYWLENGEELNATNTTVSQDPGTELYMISSELDFNVTNNHSIVCLIKYGELSVSQIFPWSKPKQEPPIDQLPFWVIIPVSGALVLTAVVLYCLACRHVARWKRTRRNEETVGTERLSPIYLGSAQSSG

The target in this experiment is T1, Soluble CD28-Ig (extracellular domain of human CD28 fused to the Fc portion of human IgG1) (human, UniProt P10747 19-152, biotin-conjugated (NHS-biotin) in the FACS binding assays).
T1 construct: extracellular domain; bought from R&D Systems; also called sCD28-Ig; CD28-Ig Fc; not shown: Fc portion of human IgG1
Put plainly: competitive FACS on transfected cells, biotin-sCD28-Ig with FITC-sCTLA-4-Ig; grade 0-2 of CD28/CTLA-4 ratio vs WT hB7-1.
In the case of B1, the “Binding Score” value amounted to 2.
For B2, the “Binding Score” value is 2.
As to B3, the “Binding Score” value came out at 1.
On to B4, for which the “Binding Score” value was determined as 2.
Next, B5: 0; B6: 2; B7: 1.
Consider B8, for which the “Binding Score” value was found to be 0.
In the case of B9, the “Binding Score” value was found to be 1.
As for B10, the “Binding Score” value came out at 2.
For the molecule B11, the “Binding Score” value was found to be 0.
Take B12: the “Binding Score” value was found to be 1.
Next, B13: 2; B14: 1.
For the molecule B15, the “Binding Score” value amounted to 1.
As to B16, the “Binding Score” value came to 2.
Take B17: the “Binding Score” value turned out to be 1.
Turning to B18, the “Binding Score” value stood at 1.
